# In PMC8765073 (mAbs, 2022):
# Positions count from the first letter of the chain named.
# B1: Y4.2 (D27LEY), scFv (scFv, V domains shown)
# VH: QVQLQQSGAEVKKPGSSVKVSCKASGGTFGNWSISWVRQAPGQGLEWMGGIAPGRGEATYAQKFQGRVTITTDESTSTAYMELSSLRSEDTAVYYCARETWYTSGGMDVWGQGTTVTVSS
# VL: SYELTQPPSVSVAPGKTARITCGGNNIGRKSVHWYQQKPGQAPVLVVYDDSDRPSGIPERFSGSNSGNTATLTISRVEAGDEADYYCQVYDLWSSDYVFGTGTKVEIK
# B2: D27LE (antibody, V domains shown)
# VH: B1 VH with A52D, G54S
# VL: B1 VL
# B3: D27LEY (antibody, V domains shown)
# VH: B1 VH
# VL: B1 VL
# B4: Y1.10 (scFv, V domains shown)
# VH: B1 VH with S33T, A52G, G54R, R55Q
# VL: B1 VL
# B5: Y9.7 (scFv, V domains shown)
# VH: B1 VH with A52N, G54S, R55I
# VL: B1 VL
# B6: Y4.1 (scFv, V domains shown)
# VH: B1 VH with S33T, G54T
# VL: B1 VL
# B7: Y7.10 (scFv, V domains shown)
# VH: B1 VH with S33T, A52I, G54S
# VL: B1 VL
# B8: Y9.6 (scFv, V domains shown)
# VH: B1 VH with S33T, A52I, G54T, R55I
# VL: B1 VL
# B9: Y8.10 (scFv, V domains shown)
# VH: B1 VH with R55Q
# VL: B1 VL
# B10: Y2.1 (scFv, V domains shown)
# VH: B1 VH with A52V, G54R, R55D
# VL: B1 VL
# B11: D27LE, scFv (scFv, V domains shown)
# VH: B1 VH with A52D, G54S
# VL: B1 VL
# B12: Y6.8 (scFv, V domains shown)
# VH: B1 VH with S33T, G54D
# VL: B1 VL
# Target: T1, N501Y mutant RBD (SARS-CoV-2 Alpha (B.1.1.7), RBD N501Y, N501Y)
# Test: BLI
row,Binder,Kd [nM]
1,B1,4.87
2,B2,0.54
3,B3,< 0.001

# Target: RBD of the Delta variant (SARS-CoV-2, Delta (B.1.617.2), L452R | T478K)
# Test: BLI
row,Binder,Kd [nM]
1,B3,0.32

# Target: T1, N501Y mutant RBD
# Test: BLI
# Remark: another data set of the same source
row,Binder,Kd [nM]
1,B4,842
2,B5,79.2
3,B6,102
4,B7,41.2
5,B8,263
6,B9,21.3
7,B10,30.8
8,B1,9.4
9,B11,276
10,B12,93.5
